Data reported in patent US20210054049A1 (MERUS N V, published 2021).

Target: c-MET (UniProt P08581 25-932)
Experiment: ELISA on c-MET coated plates

Sequence of c-MET (P08581 25-932 limits assumed): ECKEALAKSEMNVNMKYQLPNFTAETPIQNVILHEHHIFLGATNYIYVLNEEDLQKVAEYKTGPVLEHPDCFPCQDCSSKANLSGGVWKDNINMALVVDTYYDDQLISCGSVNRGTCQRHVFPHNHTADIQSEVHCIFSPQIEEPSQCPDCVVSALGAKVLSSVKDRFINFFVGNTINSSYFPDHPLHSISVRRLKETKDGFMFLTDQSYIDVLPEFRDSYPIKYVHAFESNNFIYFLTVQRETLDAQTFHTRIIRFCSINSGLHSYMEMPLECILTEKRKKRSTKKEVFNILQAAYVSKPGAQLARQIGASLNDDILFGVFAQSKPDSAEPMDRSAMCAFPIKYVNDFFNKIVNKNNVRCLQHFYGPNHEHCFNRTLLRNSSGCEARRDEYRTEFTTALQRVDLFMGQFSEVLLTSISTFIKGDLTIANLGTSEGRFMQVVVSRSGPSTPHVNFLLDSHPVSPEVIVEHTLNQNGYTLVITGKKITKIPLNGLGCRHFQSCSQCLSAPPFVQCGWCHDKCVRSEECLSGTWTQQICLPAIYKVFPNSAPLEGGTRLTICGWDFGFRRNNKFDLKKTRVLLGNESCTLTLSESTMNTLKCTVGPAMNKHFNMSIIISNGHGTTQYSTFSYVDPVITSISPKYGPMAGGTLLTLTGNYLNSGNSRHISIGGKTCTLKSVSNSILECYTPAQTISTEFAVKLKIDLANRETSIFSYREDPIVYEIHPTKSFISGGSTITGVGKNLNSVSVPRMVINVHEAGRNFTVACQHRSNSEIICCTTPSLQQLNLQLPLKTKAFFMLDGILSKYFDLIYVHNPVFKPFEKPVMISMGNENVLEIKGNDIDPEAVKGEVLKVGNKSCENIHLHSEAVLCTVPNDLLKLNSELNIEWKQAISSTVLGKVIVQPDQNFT

B1: PB27538p43 (bispecific antibody)
heavy (part 1 of 2) 1: EVQLVETGGGVVQPGRSLRLSCAASGFTFSQYAMHWVRQAPGKGLEWVAIISHDERNKYYVDSGMGRFTISRDNSKNTLFLQMNSLRSEDTAVYYCARDMRKGGYYYGFDVWGQGTTVTVSSASTKGPSVFPLAPSSKSTSGGTAALGCLVKDYFPEPVTVSWNSGALTSGVHTFPAVLQSSGLYSLSSVVTVPSSSLGTQTYICNVNHKPSNTKVDK
heavy (part 2 of 2) 1: not shown
heavy (part 1 of 2) 2: not shown
heavy (part 2 of 2) 2: not shown
light: not shown
notes: also called PB27538p44; PB27538p33
- binding result: binds

B2: PB27538p46 (bispecific antibody)
heavy (part 1 of 2) 1: EVQLVETGGGVVQPGRSLRLSCAASGFTFSQYAMHWVRQAPGKGLEWVAIISHDERNKYYVDSGMGRFTISRDNSKNTLFLQMNSLRSEDTAVYYCARDMRKGGYYYGFDVWGQGTTVTVSSASTKGPSVFPLAPSSKSTSGGTAALGCLVKDYFPEPVTVSWNSGALTSGVHTFPAVLQSSGLYSLSSVVTVPSSSLGTQTYICNVNHKPSNTKVDK
heavy (part 2 of 2) 1: not shown
heavy (part 1 of 2) 2: not shown
heavy (part 2 of 2) 2: not shown
light: not shown
notes: also called PB27538p36; MG1516C3211 x MG3462C3215
- binding result: binds

B3: PB27538p45 (bispecific antibody)
heavy (part 1 of 2) 1: EVQLVETGGGVVQPGRSLRLSCAASGFTFSQYAMHWVRQAPGKGLEWVAIISHDERNKYYVDSGMGRFTISRDNSKNTLFLQMNSLRSEDTAVYYCARDMRKGGYYYGFDVWGQGTTVTVSSASTKGPSVFPLAPSSKSTSGGTAALGCLVKDYFPEPVTVSWNSGALTSGVHTFPAVLQSSGLYSLSSVVTVPSSSLGTQTYICNVNHKPSNTKVDK
heavy (part 2 of 2) 1: not shown
heavy (part 1 of 2) 2: not shown
heavy (part 2 of 2) 2: not shown
light: not shown
notes: also called PB27538p35; MG1516C3210 x MG3462C3215
- binding result: binds

B4: PB27538p51 (bispecific antibody)
heavy (part 1 of 2) 1: EVQLVETGGGVVQPGRSLRLSCAASGFTFSQYAMHWVRQAPGKGLEWVAIISHDERNKYYVDSGMGRFTISRDNSKNTLFLQMNSLRSEDTAVYYCARDMRKGGYYYGFDVWGQGTTVTVSSASTKGPSVFPLAPSSKSTSGGTAALGCLVKDYFPEPVTVSWNSGALTSGVHTFPAVLQSSGLYSLSSVVTVPSSSLGTQTYICNVNHKPSNTKVDK
heavy (part 2 of 2) 1: not shown
heavy (part 1 of 2) 2: not shown
heavy (part 2 of 2) 2: not shown
light: not shown
notes: also called PB27538p41; MG1516C3209 x MG3462C3219
- binding result: binds

B5: PB27538p50 (bispecific antibody)
heavy (part 1 of 2) 1: EVQLVETGGGVVQPGRSLRLSCAASGFTFSQYAMHWVRQAPGKGLEWVAIISHDERNKYYVDSGMGRFTISRDNSKNTLFLQMNSLRSEDTAVYYCARDMRKGGYYYGFDVWGQGTTVTVSSASTKGPSVFPLAPSSKSTSGGTAALGCLVKDYFPEPVTVSWNSGALTSGVHTFPAVLQSSGLYSLSSVVTVPSSSLGTQTYICNVNHKPSNTKVDK
heavy (part 2 of 2) 1: not shown
heavy (part 1 of 2) 2: not shown
heavy (part 2 of 2) 2: not shown
light: not shown
notes: also called PB27538p40; MG1516C3209 x MG3462C3218
- binding result: binds

B6: PB27538p48 (bispecific antibody)
heavy (part 1 of 2) 1: EVQLVETGGGVVQPGRSLRLSCAASGFTFSQYAMHWVRQAPGKGLEWVAIISHDERNKYYVDSGMGRFTISRDNSKNTLFLQMNSLRSEDTAVYYCARDMRKGGYYYGFDVWGQGTTVTVSSASTKGPSVFPLAPSSKSTSGGTAALGCLVKDYFPEPVTVSWNSGALTSGVHTFPAVLQSSGLYSLSSVVTVPSSSLGTQTYICNVNHKPSNTKVDK
heavy (part 2 of 2) 1: not shown
heavy (part 1 of 2) 2: not shown
heavy (part 2 of 2) 2: not shown
light: not shown
notes: also called PB27538p38; MG1516C3209 x MG3462C3216
- binding result: binds

B7: PB27538p49 (bispecific antibody)
heavy (part 1 of 2) 1: EVQLVETGGGVVQPGRSLRLSCAASGFTFSQYAMHWVRQAPGKGLEWVAIISHDERNKYYVDSGMGRFTISRDNSKNTLFLQMNSLRSEDTAVYYCARDMRKGGYYYGFDVWGQGTTVTVSSASTKGPSVFPLAPSSKSTSGGTAALGCLVKDYFPEPVTVSWNSGALTSGVHTFPAVLQSSGLYSLSSVVTVPSSSLGTQTYICNVNHKPSNTKVDK
heavy (part 2 of 2) 1: not shown
heavy (part 1 of 2) 2: not shown
heavy (part 2 of 2) 2: not shown
light: not shown
notes: also called PB27538p39; MG1516C3209 x MG3462C3217
- binding result: binds

B8: PB27538p52 (bispecific antibody)
heavy (part 1 of 2) 1: EVQLVETGGGVVQPGRSLRLSCAASGFTFSQYAMHWVRQAPGKGLEWVAIISHDERNKYYVDSGMGRFTISRDNSKNTLFLQMNSLRSEDTAVYYCARDMRKGGYYYGFDVWGQGTTVTVSSASTKGPSVFPLAPSSKSTSGGTAALGCLVKDYFPEPVTVSWNSGALTSGVHTFPAVLQSSGLYSLSSVVTVPSSSLGTQTYICNVNHKPSNTKVDK
heavy (part 2 of 2) 1: not shown
heavy (part 1 of 2) 2: not shown
heavy (part 2 of 2) 2: not shown
light: not shown
notes: also called PB27538p42; MG1516C3209 x MG3462C3221
- binding result: binds
